Measurements: US9555076B2, “Neuregulin based methods and compositions for treating cardiovascular diseases” (Zensun (Shanghai) Science & Technology, Co., Ltd., priority 2002, dated 2017)
“And” between values parts separate entries of the source, which are not always exact repeats. Equal entries are not always repeated.

Legend:
[1] = tested on: heart failure in rat caused by ligation of coronary artery; assay: Capillary counting in myocardial fibrotic area (HE, image analysis); type: in vivo, SD rat
Excerpt: (§1) After fixed with 10% formaldehyde, myocardium of the rat was longitudinally cut with equal distance into 3 slices, conventionally embedded with paraffin, section made, HE stained, image analysis for area of fibrotic region of the heart, counted the number of capillary in the fibrotic lesion (counting unit: piece/mm^2); Nagar-Oslen stained, studied the size of ischemic hypoxic region in the myocardium.

[2] = tested on: heart failure in rat caused by ligation of coronary artery; assay: Nagar-Oslen staining of ischemic hypoxic myocardium; type: in vivo, SD rat
Excerpt: as §1
In Nagar-Oslen stained section, normal myocardium stained with light yellow color, while ischemic hypoxic area stained deeper with reddish color. Ischemic hypoxic changes could be analyzed with this method and comparison of qualitative and semi-quantitative test could be made.

[3] = tested on: toxic myocarditis caused by Adriamycin in rat; assay: Survival rate, Adriamycin caused toxic myocarditis rat model; type: in vivo, SD rat
Experimental: rhNRG-1β was injected into the tail vein within 24 hours after the first injection of Adriamycin, the injection of rhNRG-1 β was carried out once daily for 10 days. Dosage was adjusted according to the body weight, volume of the drug administered was 0.2 ml/100 g.
Based on the <<Guidance Principle of New Drug Preclinical Experiment>>, 3.3 mg/kg of Adriamycin was injected into the tail vein, once per week for consecutive 4 injections, establishing Adriamycin caused toxic myocarditis rat model.
rhNRG-1 β was injected into the tail vein within 24 hours after the first injection of Adriamycin. During the experiment, animal survival was dynamically monitored, heart function indexes (maximal rate of pressure increase within left ventricle, […], maximal rate of pressure decrease within left ventricle, −dp/dt, systolic end pressure of left ventricle LVPmax, diastolic end pressure of left ventricle LVPmin) were monitored at the 5th week. Section was made from the heart tissue and pathological changes examined.
Situation of survival was recorded weekly and the survival rate of the various experimental groups was calculated. Survival rate (%)=survival animal number/number of experimental animals×100.

[4] = tested on: toxic myocarditis caused by Adriamycin in rat; assay: Myocardial pathologic scoring, Adriamycin rat model; type: in vivo, SD rat; details: Adriamycin model
Experimental: (§2) Heart was extirpated after thoracotomy (auricle should be reserved), the heart weight was measured after dried with absorbent paper, ratio of heart weight/body weight calculated; outer diameter of the heart was measured at ½ site of the vertically standing heart; medium part of the left ventricle was crosswise cut open, maximal thickness of free wall of the left ventricle measured; the heart was fixed with 10% formaldehyde, paraffin embedded and HE stained, observation of the myocardial structure carried out under optic microscope, give out pathologic score.
Scoring could be performed between grade 1 and grade 2 or between grade 2 and grade 3, e.g. grade 1.5, grade 2.5 etc. 6.3.3.3 Determination of Hemodynamics Index

[5] = tested on: toxic myocarditis caused by Adriamycin in rat; assay: Serum troponin T (cTnT) level, Adriamycin rat model; type: in vivo, SD rat; details: Adriamycin model, (I)
Experimental: 2 ml of arterial blood was withdrawn, serum extracted, frozen and stored at −20° C., determination of serum cTnT content was performed with electrochemistry irradiate method submitted to be carried out by Clinical Laboratory of Zhong Shan Hospital.

[6] = tested on: toxic myocarditis caused by Adriamycin in rat; assay: Heart size (heart weight/body weight, wall thickness), Adriamycin rat model; type: in vivo, SD rat; details: Adriamycin model
Experimental: as §2

[7] = tested on: acute myocardial injury caused by viral (Coxsackie B3) infection in mice; assay: Serum troponin I (cTnI), mice infected with Coxsackie B3 virus; type: in vivo, BALB/C mice
Experimental: Severity of myocardial injury was evaluated through determination of the amount of serum cTnI release, with advantage of high specificity and high sensitivity when comparing with other traditional index such as CK, LDH and AST. Therefore, serum cTnI content determination was used as an objective index reflecting the severity of myocardial injury.
At the 8th day of viral injection, body weight of the mice was measured and blood withdrawn from the orbit, serum separated, stored in −20° C. refrigerator and serum cTnI determination with luminous reaction carried out.

Rhesus = assay: Serum antibody detection (ELISA) in long-term toxicity study; type: in vivo; details: 7.5, 15, 75 μg/kg/d iv, 1, 2, 3-week and end of convalescent period
Experimental: Sealing: Wash the plate 5 times, prepare 5% evaporated skimmed milk with cleaning solution.
Dilute the scheduled for testing serum; dilute the sample with sample dilution solution, dilute gradient is 1:100.
Add sample: Wash the sealed enzyme labeled plate for 3 times, add scheduled for testing serum, 100 μl/hole, 37° C. for 1 hour.
Add enzyme labeled antibody: Wash the plate 5 times, add 1:1000 diluted HRP labeled rat anti-monkey immunoglobulin, […], 37° C. for 1 hour.
Substrate: Wash the plate 5 times, add newly prepared substrate operating fluid, 100 μl/hole, 37° C. for 10 minutes.
Ending: add 2N H2SO4, 50 μl/hole to end the reaction.
Odd value detection: Positive result was defined as OD value of testing sample was 2.1 time greater than that of the negative control (serum was 1:100 diluted).

[8] = tested on: heart failure in rat caused by ligation of coronary artery; assay: Echocardiography heart function, heart failure by ligation of coronary artery; type: in vivo, SD rat

B1: rhNRG-1 β: Recombinant human neuregulin fragment of 61 amino acid (SEQ ID NO:4), 3 disulfide bonds, expressed in E. coli (protein, listed as Homo sapiens)
chain: SHLVKCAEKEKTFCVNGGECFMVKDLSNPSRYLCKCPNEFTGDRCQNYVMASFYKAEELYQ
modifications: disulfide (positions not given here)
- Capillary counting (I) ([1]; 5 μg/kg iv qd x 10): 9.35 ± 4.2 piece/mm^2
- Capillary counting (II) ([1]; 5 μg/kg iv qd x 10): 15.0 ± 6.9 piece/mm^2
- Capillary counting (I) ([1]; 10 μg/kg iv qd x 10): 8.99 ± 3.3 piece/mm^2
- Capillary counting (II) ([1]; 10 μg/kg iv qd x 10): 19.6 ± 8.5 piece/mm^2
- Capillary counting (I) ([1]; 20 μg/kg iv qd x 10): 10.12 ± 3.0 piece/mm^2
- Capillary counting (II) ([1]; 20 μg/kg iv qd x 10): 24.6 ± 9.5 piece/mm^2
- red stained (ischemic hypoxic) tissue, Nagar-Oslen stain ([2]; 5 μg/kg): patchy distribution
- red stained (ischemic hypoxic) tissue, Nagar-Oslen stain ([2]; 10 μg/kg): patchy distribution
- red stained (ischemic hypoxic) myocardial cells, Nagar-Oslen stain ([2]; 20 μg/kg): punctuate distribution
- survival rate ([3]; Adriamycin 3.3 mg/kg weekly × 4, 10 μg/kg iv qd 10 days): 60%
- survival rate ([3]; Adriamycin 3.3 mg/kg weekly × 4, 20 μg/kg iv qd 10 days): 90%
- survival rate ([3]; Adriamycin 3.3 mg/kg weekly × 4, 40 μg/kg iv qd 10 days): 85%
- Pathologic scoring ([4]; 10 μg/kg iv qd × 10 d, (I)): 1.83 ± 0.41
- Pathologic scoring ([4]; 10 μg/kg iv qd × 10 d, (II)): 2.167 ± 0.516
- Pathologic scoring ([4]; 20 μg/kg iv qd × 10 d, (I)): 1.17 ± 0.93
- Pathologic scoring ([4]; 20 μg/kg iv qd × 10 d, (II)): 1.667 ± 0.931
- myocardial pathologic score of the section shown in FIG. 20 ([4]; 20 μg/kg testing drug group): 1
- Pathologic scoring ([4]; 40 μg/kg iv qd × 10, (II)): 0.583 ± 0.204
- Pathologic scoring ([4]; 40 μg/kg iv qd × 10 d, (I)): 0.33 ± 0.41
- myocardial pathologic score of the section shown in FIG. 20 ([4]; 40 μg/kg testing drug group): 1
- myocardial pathologic score of the section shown in FIG. 20 ([4]; 130 μg/kg testing drug group (so in the source)): 1.5
- cTnT ([5]; 10 μg/kg iv qd × 10 d): 0.074 ± 0.024 ng/mL
- cTnT ([5]; 10 μg/kg iv qd × 10 d, listed as rhNRG-1β): 0.074 ± 0.024 ng/mL
- cTnT ([5]; 20 μg/kg iv qd × 10 d): 0.031 ± 0.006 ng/mL
- cTnT ([5]; 20 μg/kg iv qd × 10 d, listed as rhNRG-1β): 0.031 ± 0.006 ng/mL
- cTnT ([5]; 40 μg/kg iv qd × 10 d): 0.025 ± 0.011 ng/mL
- cTnT ([5]; 40 μg/kg iv qd × 10 d, listed as rhNRG-1β): 0.025 ± 0.011 ng/mL
- Heart weight/body weight ([6]; 10 μg/kg iv qd × 10 d, (I)): 0.00301 ± 0.0002
- Left ventricle wall thickness ([6]; 10 μg/kg iv qd × 10 d, (I)): 1.773 ± 0.115 mm
- Heart weight/body weight ([6]; 10 μg/kg iv qd × 10 d, (II)): 0.00307 ± 0.000
- Left ventricular wall thickness ([6]; 10 μg/kg iv qd × 10 d, (II)): 2.18 ± 0.21 mm
- Heart weight/body weight ([6]; 20 μg/kg iv qd × 10 d, (I)): 0.0032 ± 0.0001
- Left ventricle wall thickness ([6]; 20 μg/kg iv qd × 10 d, (I)): 1.789 ± 0.133 mm
- Heart weight/body weight ([6]; 20 μg/kg iv qd × 10 d, (II)): 0.00303 ± 0.000
- Left ventricular wall thickness ([6]; 20 μg/kg iv qd × 10 d, (II)): 2.15 ± 0.24 mm
- Heart weight/body weight ([6]; 40 μg/kg iv qd × 10, (II)): 0.00297 ± 0.000
- Left ventricular wall thickness ([6]; 40 μg/kg iv qd × 10, (II)): 2.06 ± 0.2 mm
- Heart weight/body weight ([6]; 40 μg/kg iv qd × 10 d, (I)): 0.0031 ± 0.0002
- Left ventricle wall thickness ([6]; 40 μg/kg iv qd × 10 d, (I)): 1.813 ± 0.12 mm
- cTnI Mean ± SD ([7]; 7.5 μg/kg iv qd × 5, 8th day, (I)): 29.05 ± 17.06 ng/mL
- cTnI Mean ± SD ([7]; 7.5 μg/kg iv qd × 5, 8th day, (I), listed as rhNRG-1β): 29.05 ± 17.06 ng/mL
- cTnI Mean ± SD ([7]; 7.5 μg/kg iv qd × 5, 8th day, (II)): 26.85 ± 15.20 ng/mL
- cTnI Mean ± SD ([7]; 15 μg/kg iv qd × 5, 8th day, (I)): 19.43 ± 10.76 ng/mL
- cTnI Mean ± SD ([7]; 15 μg/kg iv qd × 5, 8th day, (I), listed as rhNRG-1β): 19.43 ± 10.76 ng/mL
- cTnI Mean ± SD ([7]; 15 μg/kg iv qd × 5, 8th day, (II)): 15.59 ± 14.94 ng/mL
- cTnI Mean ± SD ([7]; 30 μg/kg iv qd × 3, (I)): 13.37 ± 9.53 ng/mL
- cTnI Mean ± SD ([7]; 30 μg/kg iv qd × 3, (II)): 12.32 ± 18.36 ng/mL
- cTnI Mean ± SD ([7]; 30 μg/kg iv qd × 5, 8th day, (I)): 7.98 ± 6.07 ng/mL
- cTnI Mean ± SD ([7]; 30 μg/kg iv qd × 5, 8th day, (I), listed as rhNRG-1β): 7.98 ± 6.07 ng/mL
- cTnI Mean ± SD ([7]; 30 μg/kg iv qd × 5, 8th day, (II)): 0.54 ± 0.53 ng/mL
- cTnI Mean ± SD ([7]; 30 μg/kg iv qd × 5, Example 5 (I)): 1.06 ± 1.32 ng/mL
- cTnI Mean ± SD ([7]; 30 μg/kg iv qd × 5, Example 5 (I), listed as rhNRG-1β): 1.06 ± 1.32 ng/mL
- cTnI Mean ± SD ([7]; 30 μg/kg iv qd × 5, Example 5 (II)): 0.44 ± 0.24 ng/mL
- cTnI Mean ± SD ([7]; 30 μg/kg iv qd × 7, (I)): 1.05 ± 1.2 ng/mL and 1.05 ± 1.20 ng/mL
- cTnI Mean ± SD ([7]; 30 μg/kg iv qd × 7, (I), listed as rhNRG-1β): 1.05 ± 1.20 ng/mL
- cTnI Mean ± SD ([7]; 30 μg/kg iv qd × 7, (II)): 0.51 ± 0.28 ng/mL
- antibody testing (Rhesus): negative results
- EF value ([8]; 5 μg/kg, after ligation prior to drug administration, long-term monitoring): 53.1 ± 12.8%
- time the changes of ejection fraction maintain after the drug administration ([8]; 20 μg/kg): about 35 days
- EF value ([8]; 20 μg/kg, 5-day after drug administration and 35-day after drug withdrawal): 73.0 ± 20.3 %
